Assay [1] concerns the target Intracellular part of Medicago truncatula Cytokinin Receptor 1 (MtCRE1′) (Medicago truncatula). The assay is described as follows: SEC. In general terms: In gel filtration, larger molecules generally elute earlier.
Assay [2] shares this target. Description: dynamic light scattering.

The text below walks through data of paper PMC3716865.

In general, stoichiometry N refers to the number of molecules, sites or subunits per partner or assembly.

Consider “Intracellular part of Medicago truncatula Cytokinin Receptor 1 (MtCRE1′) (domain or fragment)”, for which the stoichiometry N in assay [1] and in assay [2] was 2 each time.
